According to patent publication US20020143164:

B1: Flag-tagged full-length GRF4 (protein)
chain: MKPLAIPANHGVMGQQEKHSLPADFTKLHLTDSLHPQVTHVSSSHSGCSITSDSGSSSLSDIYQATESEAGDMDLSGLPETAVDSEDDDDEEDIERASDPLMSRDIVRDCLEKDPIDRTDDDIEQLLEFMHQLPAFANMTMSVRRELCAVMVFAVVERAGTIVLNDGEELDSWSVILNGSVEVTYPDGKAEILCMGNSFGVSPTMDKEYMKGVMRTKVDDCQFVCIAQQDYCRILNQVEKNMQKVEEEGEIVMVKEHRELDRTGTRKGHIVIKGTSERLTMHLVEEHSVVDPTFIEDFLLTYRTFLSSPMEVGKKLLEWFNDPSLRDKVTRVVLLWVNNHFNDFEGDPAMTRFLEEFENNLEREKMGGHLRLLNIACAAKAKRRLMTLTKPSREAPLPFILLGGSEKGFGIFVDSVDSGSKATEAGLKRGDQILEVNGQNFENIQLSKAMEILRNNTHLSITVKTNLFVFKELLTRLSEEKRNGAPHLPKIGDIKKASRYSIPDLAVDVEQVIGLEKVNKKSKANTVGGRNKLKKILDKTRISILPQKPYNDIGIGQSQDDSIVGLRQTKHIPTALPVSGTLSSSNPDLLQSHHRILDFSATPDLPDQVLRVFKADQQSRYIMISKDTTAKEVVIQAIREFAVTATPDQYSLCEVSVTPEGVIKQRRLPDQLSKLADRIQLSGRYYLKNNMETETLCSDEDAQELLRESQISLLQLSTVEVATQLSMRNFELFRNIEPTEYIDDLFKLRSKTSCANLKRFEEVINQETFWVASEILRETNQLKRMKIIKHFIKIALHCRECKNFNSMFAIISGLNLAPVARLRTTWEKLPNKYEKLFQDLQDLFDPSRNMAKYRNVLNSQNLQPPIIPLFPVIKKDLTFLHEGNDSKVDGLVNFEKLRMIAKEIRHVGRMASVNMDPALMFRTRKKKWRSLGSLSQGSTNATVLDVAQTGGHKKRVRRSSFLNAKKLYEDAQMARKVKQYLSNLELEMDEESLQTLSLQCEPATNTLPKNPGDKKPVKSETSPVAPRAGSQQKAQSLPQPQQQPPPAHKINQGLQVPAVSLYPSRKKVPVKDLPPFGINSPQALKKILSLSEEGSLERHKKQAEDTISNASSQLSSPPTSPQSSPRKGYTLAPSGTVDNFSDSGHSEISSRSSIVSNSSFDSVPVSLHDERRQRHSVSIVETNLGMGRMERRTMIEPDQYSLGSYAPMSEGRGLYATATVISSPSTEELSQDQGDRASLDAADSGRGSWTSCSSGSHDNIQTIQHQRSWETLPFGHTHFDYSGDPAGLWASSSHMDQIMFSDHSTKYNRQNQSRESLEQAQSRASWASSTGYWGEDSEGDTGTIKRRGGKDVSIEAESSSLTSVTTEETKPVPMPAHIAVASSTTKGLIARKEGRYREPPPTPPGYIGIPITDFPEGHSHPARKPPDYNVALQRSRMVARSSDTAGPSSVQQPHGHPTSSRPVNKPQWHKPNESDPRLAPYQSQGFSTEEDEDEQVSAV
B2: Isolated CDC25 domain of GRF4 (protein)
chain: SLLQLSTVEVATQLSMRNFELFRNIEPTEYIDDLFKLRSKTSCANLKRFEEVINQETFWVASEILRETNQLKRMKIIKHFIKIALHCRECKNFNSMFAIISGLNLAPVARLRTTWEKLPNKYEKLFQDLQDLFDPSRNMAKYRNVLNSQNLQPPIIPLFPVIKKDLTFLHEGNDSKVDGLVNFEKLRMIAKEIRHVGRMASVNMDPALMFRTRKKKWRSLGSLSQGSTNATVLDVAQTGGHKKRVRRSSFLNAKKLYEDAQMARKVKQYLSNLELEMDEESLQTLSLQCEPATNT

How the values were obtained:
[1] = molecular target: Endogenous Ras of HEK-293T cells

Sequence of GST-Ras [GST: P08515] (P08515 whole entry, looked up): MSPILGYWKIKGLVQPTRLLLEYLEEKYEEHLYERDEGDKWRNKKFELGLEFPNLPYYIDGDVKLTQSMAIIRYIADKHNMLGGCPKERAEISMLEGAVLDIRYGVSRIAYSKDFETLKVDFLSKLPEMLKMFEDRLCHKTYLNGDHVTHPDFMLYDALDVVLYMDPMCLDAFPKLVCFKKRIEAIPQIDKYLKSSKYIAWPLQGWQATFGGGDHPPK

| Protein | active Ras (Ras-GTP) precipitated with GST-Raf1-RBD from HEK-293T lysates [1] | fold Ras activation in vitro (bound 32P-GTP, 30 min, against Ras without GRFs set to 1) (GST-Ras [GST: P08515]) | Ras activation in vitro (GEF assay) (GST-Ras [GST: P08515]) |
| --- | --- | --- | --- |
| B1 | heterologous expression of GRF4 in HEK-293T cells led to a weak activation of endogenous Ras, which was greatly enhanced following stimulation of cells with ... 8-Br-cAMP | ˜2.9 fold activation in 30 min. |  |
| B2 |  |  | we were unable to demonstrate significant activation of Ras by the isolated CDC25 domain of GRF4 |
